For this experiment, the target named is TrkB receptor (mouse neuromuscular junction) (mouse) (UniProt P15209). Nature of the experiment: cell-based or functional assay.
Chain of UniProt P15209 (P15209 32-821): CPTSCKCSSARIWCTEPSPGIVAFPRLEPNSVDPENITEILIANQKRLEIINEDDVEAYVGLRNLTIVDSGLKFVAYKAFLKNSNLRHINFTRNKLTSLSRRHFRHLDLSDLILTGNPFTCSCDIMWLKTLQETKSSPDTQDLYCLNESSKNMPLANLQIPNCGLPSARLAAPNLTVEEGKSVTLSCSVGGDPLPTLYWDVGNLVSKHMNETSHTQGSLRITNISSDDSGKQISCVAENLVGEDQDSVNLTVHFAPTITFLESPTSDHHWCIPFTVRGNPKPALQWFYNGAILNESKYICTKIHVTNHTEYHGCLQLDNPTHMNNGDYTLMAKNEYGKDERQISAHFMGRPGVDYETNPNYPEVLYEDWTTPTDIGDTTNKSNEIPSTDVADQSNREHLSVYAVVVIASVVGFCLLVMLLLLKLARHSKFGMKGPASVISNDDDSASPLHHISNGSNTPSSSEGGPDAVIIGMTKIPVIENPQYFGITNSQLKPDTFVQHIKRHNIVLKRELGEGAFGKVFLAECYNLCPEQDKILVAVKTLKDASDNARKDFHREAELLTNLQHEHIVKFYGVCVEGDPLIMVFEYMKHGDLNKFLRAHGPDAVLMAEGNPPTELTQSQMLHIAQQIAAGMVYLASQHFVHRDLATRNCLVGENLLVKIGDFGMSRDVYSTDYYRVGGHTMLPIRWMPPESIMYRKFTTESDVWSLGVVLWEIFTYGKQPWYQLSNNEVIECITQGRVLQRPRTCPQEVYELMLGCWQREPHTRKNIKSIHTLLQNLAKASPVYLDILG

For the substance “recombinant human BDNF (Alomone labs) (from UniProt P23560 129-247) (ligand)”, the elevation in the level of GFP-TTC concentration at the NMJ (100 ng BDNF) is 1.72 fold, the elevation in the level of GFP-TTC concentration at the NMJ (250 ng BDNF) stood at 1.15 fold and the increase of GFP-TTC signal at the NMJ after BoTx/A block was determined as 2.05 fold.

With “recombinant human NT-4 (Alomone labs) (from UniProt P34130 81-210) (ligand)”, the GFP-TTC localization at the NMJ turned out to be 1.54 fold.

The record behind these values is US20070092449A1.
